In patent US20090081211A1 (Genentech, published 2009):

Biological target: T1, human complement C3 (human, UniProt P01024 23-1663)
T1 construct: also called native C3; pro-molecule C3
Assay: ELISA on purified C3b or C3 (FIG. 8)
Protocol: In another experiment, purified C3b or C3 were captured in microtiter plates using a polyclonal C3 antibody. Binding of S77 (A) or a polyclonal anti C3 antibody (B) to captured C3b or C3 was determined using a secondary HRPO-conjugated antibody. Color was developed with TMB (KPL), stopped in 2N H₂SO₄ and absorbance read at 450 nm.
C3b ELISA for testing specificity of anti C3b antibody S77. Twenty-five μL of capture antibody (YW144.2.45.S77 Affinity Matured xC3/C3b (Genentech) 2 μg/ml) diluted in PBS was added to wells of a microtitre plate and incubated overnight at 4° C. The plate was washed 3× with wash buffer (PBS/0.05% Tween 20 (20× stock; Media Prep; Cat. A3355)). Fifty μL of block buffer was added to the wells and the plate incubated for 1-3 hours with gentle agitation (room temperature) and washed 3× with wash buffer. […] OD reading of plate was taken (450/630 nm). […]

T1 sequence (P01024 other isoform, or with tags, fused parts or gaps limits assumed): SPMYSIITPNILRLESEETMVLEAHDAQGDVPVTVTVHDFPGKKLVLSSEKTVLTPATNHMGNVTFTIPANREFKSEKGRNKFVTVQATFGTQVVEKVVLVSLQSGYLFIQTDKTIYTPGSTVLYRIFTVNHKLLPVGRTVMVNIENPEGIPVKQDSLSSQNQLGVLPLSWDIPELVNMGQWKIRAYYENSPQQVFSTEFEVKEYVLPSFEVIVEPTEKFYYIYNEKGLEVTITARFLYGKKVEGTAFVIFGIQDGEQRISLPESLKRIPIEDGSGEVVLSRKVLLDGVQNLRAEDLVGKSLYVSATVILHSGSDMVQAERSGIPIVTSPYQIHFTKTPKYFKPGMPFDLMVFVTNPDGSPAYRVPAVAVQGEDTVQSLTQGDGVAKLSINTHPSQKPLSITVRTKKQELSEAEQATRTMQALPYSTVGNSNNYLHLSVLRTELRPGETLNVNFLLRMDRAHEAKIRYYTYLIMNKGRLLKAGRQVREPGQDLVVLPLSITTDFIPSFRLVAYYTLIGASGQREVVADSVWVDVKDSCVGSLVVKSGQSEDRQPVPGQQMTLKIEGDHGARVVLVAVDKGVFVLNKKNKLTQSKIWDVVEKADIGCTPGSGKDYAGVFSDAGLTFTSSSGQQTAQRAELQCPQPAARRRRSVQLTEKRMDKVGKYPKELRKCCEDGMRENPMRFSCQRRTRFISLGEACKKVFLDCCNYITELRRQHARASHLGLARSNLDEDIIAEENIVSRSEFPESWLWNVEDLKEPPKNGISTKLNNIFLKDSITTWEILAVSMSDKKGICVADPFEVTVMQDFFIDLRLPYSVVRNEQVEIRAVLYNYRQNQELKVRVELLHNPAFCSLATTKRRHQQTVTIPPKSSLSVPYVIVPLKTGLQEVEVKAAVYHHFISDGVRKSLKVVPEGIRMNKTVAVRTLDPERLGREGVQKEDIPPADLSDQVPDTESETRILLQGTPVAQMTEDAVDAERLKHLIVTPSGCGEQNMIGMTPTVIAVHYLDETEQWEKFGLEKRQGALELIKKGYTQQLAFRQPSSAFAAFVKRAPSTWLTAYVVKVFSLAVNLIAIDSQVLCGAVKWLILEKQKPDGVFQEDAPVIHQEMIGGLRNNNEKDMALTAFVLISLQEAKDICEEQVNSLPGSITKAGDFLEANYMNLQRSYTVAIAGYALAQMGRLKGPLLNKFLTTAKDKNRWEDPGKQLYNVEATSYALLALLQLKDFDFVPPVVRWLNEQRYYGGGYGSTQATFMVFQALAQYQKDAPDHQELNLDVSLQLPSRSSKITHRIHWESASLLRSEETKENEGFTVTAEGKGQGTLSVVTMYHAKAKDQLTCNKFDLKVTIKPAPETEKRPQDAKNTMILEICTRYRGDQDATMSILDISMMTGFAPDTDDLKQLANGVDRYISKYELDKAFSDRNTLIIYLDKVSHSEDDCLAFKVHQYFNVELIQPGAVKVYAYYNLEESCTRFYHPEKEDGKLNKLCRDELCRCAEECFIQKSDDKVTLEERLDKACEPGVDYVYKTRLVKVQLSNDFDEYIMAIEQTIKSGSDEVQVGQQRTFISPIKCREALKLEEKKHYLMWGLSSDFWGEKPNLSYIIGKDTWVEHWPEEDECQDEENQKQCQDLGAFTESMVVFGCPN

binding result: no binding
B1: antibody S77 (YW144.2.43.S77), format in the assay not stated (antibody, V domains shown)
VH: EVQLVESGGGLVQPGGSLRLSCAASGFSFTSSSVSWVRQAPGKGLEWVGLIYPYNGFNYYADSVKGRFTISADTSKNTAYLQMNSLRAEDTAVYYCARNALYGSGGYYAMDYWGQGTLVTVSS
VL: DIQMTQSPSSLSASVGDRVTITCRASQDVSTAVAWYQQKPGKAPKLLIYSASFLYSGVPSRFSGSGSGTDFTLTISSLQPEDFATYYCQQSYATLPTFEQGTKVEIK
notes: also called anti C3b antibody S77
